These results are taken from US20050119205A1, “Methods of modulating heme oxygenase-1 expression and treating heme oxygenase-1 mediated conditions” (published 2005).

Data set [1] concerns the target T1, heme oxygenase-1 (hHO-1), E. coli expressed (Homo sapiens, UniProt P09601 P09601:1-288).
T1 sequence: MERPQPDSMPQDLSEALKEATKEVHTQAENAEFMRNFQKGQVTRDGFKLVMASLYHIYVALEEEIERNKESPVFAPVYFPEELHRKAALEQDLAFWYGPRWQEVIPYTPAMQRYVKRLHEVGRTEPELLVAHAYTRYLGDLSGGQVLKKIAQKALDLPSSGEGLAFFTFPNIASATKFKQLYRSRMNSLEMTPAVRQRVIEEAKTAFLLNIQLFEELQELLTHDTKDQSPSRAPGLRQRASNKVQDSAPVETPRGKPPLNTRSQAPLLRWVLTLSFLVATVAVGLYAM
Briefly: EMSA; specificity control. Particulars: label: 32P 5'. In general terms: Mobility shift assays separate free from complexed probe on a gel.

In data set [2] the target is T2, heme oxygenase-1 (HO-1), in vitro translated (UniProt P09601 P09601:1-288).
T2 sequence: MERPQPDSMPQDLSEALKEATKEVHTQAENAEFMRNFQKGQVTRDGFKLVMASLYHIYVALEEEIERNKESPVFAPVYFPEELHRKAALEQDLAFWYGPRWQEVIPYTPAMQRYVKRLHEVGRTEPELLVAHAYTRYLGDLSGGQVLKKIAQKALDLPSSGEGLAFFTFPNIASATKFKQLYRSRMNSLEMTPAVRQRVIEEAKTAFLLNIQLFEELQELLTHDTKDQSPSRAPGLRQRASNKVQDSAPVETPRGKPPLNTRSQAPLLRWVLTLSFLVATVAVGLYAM
Briefly: EMSA; specificity control. Particulars: tags: rabbit reticulocyte lysate; label: 32P 5'.

Data set [3] has as its target T3, biliverdin reductase (hBVR) (Homo sapiens, UniProt P53004 SEQ:1-296).
T3 chain: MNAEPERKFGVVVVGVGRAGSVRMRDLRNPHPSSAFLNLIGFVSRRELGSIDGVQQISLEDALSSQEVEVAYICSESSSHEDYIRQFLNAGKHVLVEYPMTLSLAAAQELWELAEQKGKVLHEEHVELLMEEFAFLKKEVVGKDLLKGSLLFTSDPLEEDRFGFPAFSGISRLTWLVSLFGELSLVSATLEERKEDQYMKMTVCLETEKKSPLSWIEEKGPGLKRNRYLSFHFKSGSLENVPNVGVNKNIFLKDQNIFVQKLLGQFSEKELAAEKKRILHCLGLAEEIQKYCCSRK
Briefly: EMSA; 10 mM Tris pH 7.4, 50 mM NaCl, 1 mM MgCl2, 1 mM EDTA, poly(dI-dC), room temperature. Particulars: tags: rabbit reticulocyte lysate, 35S-Met labelled; chain copies: 2 (stated homodimer); label: 32P 5'. How it is done: (§1) As with native gel analysis, in vitro translated proteins were assayed for DNA binding immediately after synthesis. 1 μl of translated material was added to 5000-500,000 cpm of [³²P]-labeled DNA fragment representing approximately 2-3 ng of DNA. 0.1 μg of poly (dI•dC) in 10 μl of DNA binding buffer was added to the labeled DNA. After incubating samples for 20 min at room temperature, 5 μl loading buffer was added. The samples were resolved on 12% native polyacrylamide gel with 35 m Amp at 4° C. The gels were processed as described above. Dried gels were put on two pieces of film separated by a piece of paper. Autoradiography was done at −70° C. for different time periods.
(§2) To determine whether the synthesized HBVR binds to DNA, the in vitro translated hBVR was incubated with [³²P]-labeled 56-mer or 100-mer DNA fragments. An identical 56 bp fragment in which the AP-I site was substituted with an unrelated sequence of equal length was used as control DNA. In addition, two identical 100 bp fragments with one AP-1 or zero AP-1 sites were synthesized and used as controls (OL.619, OL.620; OL.623-OL.630, Table 1). […] Also, binding of E. coli expressed hBVR protein, which is in monomeric form, to the 100-mer DNA fragment with two AP-1 sites was not detected.

Another data set deals with T4, hBVR K143A (Homo sapiens, UniProt P53004 SEQ:1-296, K143A).
T4 sequence: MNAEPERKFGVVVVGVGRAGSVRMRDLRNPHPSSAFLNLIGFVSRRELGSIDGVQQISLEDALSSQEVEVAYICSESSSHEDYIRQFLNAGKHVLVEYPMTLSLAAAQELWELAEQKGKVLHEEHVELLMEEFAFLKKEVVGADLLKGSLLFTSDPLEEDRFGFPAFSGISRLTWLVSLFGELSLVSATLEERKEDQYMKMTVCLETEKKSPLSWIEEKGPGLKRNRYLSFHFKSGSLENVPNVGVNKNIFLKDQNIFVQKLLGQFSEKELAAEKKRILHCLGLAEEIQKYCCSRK
Briefly: EMSA; signal same as native hBVR with zero AP-1 DNA. Conditions: tags: rabbit reticulocyte lysate; chain copies: 2; label: 32P 5'. How it is done:
as §1
(§3) For this set of experiments, the [³⁵S] methionine-labeled mutant BVR proteins were generated by in vitro translation and assayed on a 12% native gel for detection of the ˜69 kDa protein band and analysis of DNA for complex formation. The 100-mer DNA fragment with two AP-1 sites or without an AP-1 site were used. On the native gel the high molecular weight band was not detected with the mutated proteins.

In another data set the target is T5, hBVR L150A (Homo sapiens, UniProt P53004 SEQ:1-296, L150A).
T5 sequence: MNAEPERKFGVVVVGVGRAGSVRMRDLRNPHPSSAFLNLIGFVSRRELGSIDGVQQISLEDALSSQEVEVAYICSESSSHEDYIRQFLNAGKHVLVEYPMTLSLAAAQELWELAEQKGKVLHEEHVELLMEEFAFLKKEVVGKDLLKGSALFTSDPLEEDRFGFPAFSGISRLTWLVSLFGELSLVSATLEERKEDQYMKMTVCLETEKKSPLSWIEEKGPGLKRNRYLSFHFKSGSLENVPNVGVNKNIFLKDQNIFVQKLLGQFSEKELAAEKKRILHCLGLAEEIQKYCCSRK
Described as above. Conditions: tags: rabbit reticulocyte lysate; chain copies: 2; label: 32P 5'. The protocol:
as §1, §3

A further data set concerns the target T6, hBVR L157A (Homo sapiens, UniProt P53004 SEQ:1-296, L157A).
T6 sequence: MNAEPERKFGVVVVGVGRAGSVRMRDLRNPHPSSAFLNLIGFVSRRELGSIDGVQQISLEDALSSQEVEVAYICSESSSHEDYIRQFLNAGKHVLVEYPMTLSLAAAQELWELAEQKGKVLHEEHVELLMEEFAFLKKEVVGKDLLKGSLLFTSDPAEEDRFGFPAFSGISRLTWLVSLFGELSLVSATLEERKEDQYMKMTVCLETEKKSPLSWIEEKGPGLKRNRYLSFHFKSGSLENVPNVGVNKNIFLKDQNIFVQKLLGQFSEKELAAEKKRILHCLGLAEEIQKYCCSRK
The data set is described as above. Conditions: tags: rabbit reticulocyte lysate; chain copies: 2; label: 32P 5'. How it is done: as §1, §3

Data set [4] concerns the molecule itself. Briefly: native PAGE (approx. 69 kDa band) against SDS-PAGE (~35 and ~40 kDa bands) of in vitro translated protein. How it is done:
The transcribed mRNA was translated in the presence of [35S] methionine using rabbit reticulocyte lysate. In vitro translation was performed using micrococcal nuclease treated rabbit reticulocyte lysate (Promega). 50 μl reaction mixture was prepared by using 35 μl lysate, 1 μl of 0.1 M DTT, 2 μl of 1 mM amino acid mixture minus methionine, 1 μl of RNase inhibitor and 5 μl translation grade [³⁵S] methionine. 5 μl transcribed mRNA was added to the above reaction mixture and immediately incubated at 30° C. for 90 minutes. The in vitro translated proteins were resolved on 12% SDS or native polyacrylamide gel along with rainbow or native high molecular weight markers, respectively (Amersham Pharmacia). The gels were fixed in 10% acetic acid and 30% methanol then treated with autoradiography enhancer (Amplify, Amersham Pharmacia) for 30 min and dried under vacuum at 80° C. for 2 h, and autoradiographed at −70° C.
In vitro translated protein was assayed on native gel immediately after synthesis. […] A portion of the translated protein was treated with SDS and analyzed on denaturing 12% polyacrylamide gel.
Next, whether the protein synthesized by reticulocyte lysate is in fact hBVR was tested. […] As shown in the autoradiogram, two prominent bands at ˜35 and ˜40 kDa were detected. hBVR, based on its predicted amino acid composition, has a molecular weight of ˜34 kDa (Maines et al., Eur. J. Biochem.

Data set [5] deals with the molecule itself. Description: native 12% polyacrylamide gel, homodimer (~69 kDa band) formation. The protocol:
In vitro translated protein was assayed on native gel immediately after synthesis. One μl of in vitro translated material was added to 2 μl (25 ng) of annealed, unlabelled control DNA fragment. To this 0.4 μg of poly dI•dC (Amersham Pharmacia) in 14 μl DNA binding buffer (10 mM Tris-chloride [pH 7.4], 50 mM NaCl, 1 mM MgCl₂, 1 mM EDTA, 1 mM DTT, 5% glycerol) was added. It was incubated for 5 min at room temperature and after adding 5 μl loading buffer (1.5×DNA binding buffer with bromophenol blue dye) samples were resolved on 12% native polyacrylamide gel in TAE buffer at 35 milliamps. The control DNA helps to prevent the formation of nonspecific protein aggregates, thereby increasing the resolution of protein bands (Halazonetis et al., Cell 55:917-924 (1988), which is hereby incorporated by reference in its entirety). A portion of the translated protein was treated with SDS and analyzed on denaturing 12% polyacrylamide gel.
as §3

Data set [6] addresses T3, biliverdin reductase (hBVR). Briefly: EMSA. Conditions: tags: rabbit reticulocyte lysate, 35S-Met labelled; chain copies: 2 (stated homodimer); label: 32P 5'. How it is done:
as §1, §2

B1: 100-mer HO-1 promoter, two AP-1 sites (OL.623/OL.624) (dsDNA)
DNA 1: TCCTCAGCTGCTTTTATGCTGTGTCATGGTTGGGAGGGGTGATTAGCAGACAAAGGGAAGACAGATTTTGCTGAGTCACCCTCTGTTCCCTCTGCCTCAG
DNA 2: CTGAGGCAGAGGGAACAGAGGGTGACTCAGCAAAATCTGTCTTCCCTTTGTCTGCTAATCACCCCTCCCAACCATGACACAGCATAAAAGCAGCTGAGGA
As to B1, the binding result is “no binding” in data set [1]; “no binding” in [2]; “binds” in [3]; “no binding” with hBVR K143A; “no binding” in the data set with hBVR L150A; “no binding” with hBVR L157A.

B2: in vitro translated human biliverdin reductase (hBVR) (enzyme)
chain: MNAEPERKFGVVVVGVGRAGSVRMRDLRNPHPSSAFLNLIGFVSRRELGSIDGVQQISLEDALSSQEVEVAYICSESSSHEDYIRQFLNAGKHVLVEYPMTLSLAAAQELWELAEQKGKVLHEEHVELLMEEFAFLKKEVVGKDLLKGSLLFTSDPLEEDRFGFPAFSGISRLTWLVSLFGELSLVSATLEERKEDQYMKMTVCLETEKKSPLSWIEEKGPGLKRNRYLSFHFKSGSLENVPNVGVNKNIFLKDQNIFVQKLLGQFSEKELAAEKKRILHCLGLAEEIQKYCCSRK
notes: the entries concern its self-association into a homodimer; also called translated hBVR; native in vitro translated hBVR
In the case of B2, in [4], the binding result is reported as “binds”.

B3: in vitro translated hBVR mutant K143A (enzyme)
chain: MNAEPERKFGVVVVGVGRAGSVRMRDLRNPHPSSAFLNLIGFVSRRELGSIDGVQQISLEDALSSQEVEVAYICSESSSHEDYIRQFLNAGKHVLVEYPMTLSLAAAQELWELAEQKGKVLHEEHVELLMEEFAFLKKEVVGADLLKGSLLFTSDPLEEDRFGFPAFSGISRLTWLVSLFGELSLVSATLEERKEDQYMKMTVCLETEKKSPLSWIEEKGPGLKRNRYLSFHFKSGSLENVPNVGVNKNIFLKDQNIFVQKLLGQFSEKELAAEKKRILHCLGLAEEIQKYCCSRK
notes: Site-directed mutant made in p507 and translated in vitro with [35S] methionine; also called K3 mutant
On to B3, for which, in data set [5], the binding result is reported as “no binding”.

B4: in vitro translated hBVR mutant L157A (enzyme)
chain: MNAEPERKFGVVVVGVGRAGSVRMRDLRNPHPSSAFLNLIGFVSRRELGSIDGVQQISLEDALSSQEVEVAYICSESSSHEDYIRQFLNAGKHVLVEYPMTLSLAAAQELWELAEQKGKVLHEEHVELLMEEFAFLKKEVVGKDLLKGSLLFTSDPAEEDRFGFPAFSGISRLTWLVSLFGELSLVSATLEERKEDQYMKMTVCLETEKKSPLSWIEEKGPGLKRNRYLSFHFKSGSLENVPNVGVNKNIFLKDQNIFVQKLLGQFSEKELAAEKKRILHCLGLAEEIQKYCCSRK
notes: Site-directed mutant made in p507 and translated in vitro with [35S] methionine; also called L5 mutant
For B4, in data set [5], the binding result is listed as “no binding”.

B5: in vitro translated hBVR mutant L150A (enzyme)
chain: MNAEPERKFGVVVVGVGRAGSVRMRDLRNPHPSSAFLNLIGFVSRRELGSIDGVQQISLEDALSSQEVEVAYICSESSSHEDYIRQFLNAGKHVLVEYPMTLSLAAAQELWELAEQKGKVLHEEHVELLMEEFAFLKKEVVGKDLLKGSALFTSDPLEEDRFGFPAFSGISRLTWLVSLFGELSLVSATLEERKEDQYMKMTVCLETEKKSPLSWIEEKGPGLKRNRYLSFHFKSGSLENVPNVGVNKNIFLKDQNIFVQKLLGQFSEKELAAEKKRILHCLGLAEEIQKYCCSRK
notes: Site-directed mutant made in p507 and translated in vitro with [35S] methionine; also called L4 mutant
In the case of B5, in data set [5], the binding result was “no binding”.

B6: 56-mer, one AP-1 site (OL.627/OL.628) (dsDNA)
DNA 1: CACTGAGAGAAACTATTACACAAGCCACATTAGCATGACTCATTGTTTCTGATCAG
DNA 2: CTGATCAGAAACAATGAGTCATGCTAATGTGGCTTGTGTAATAGTTTCTCTCAGTG
Take B6: the binding result in [2] and in [6] was “no binding” in each case.
